Experiments:
[1] = biological target: T1, leucyl oligopeptide of SEQ ID NO: 2
T1 chain: LFPTEPS

[2] = biological target: T2, methionyl oligopeptide of SEQ ID NO: 1 (Met-Phe-Pro-Thr-Glu-Pro-Ser)
T2 chain: MFPTEPS

B1: Aeromonas proteolytica (Vibrio proteolytica) aminopeptidase (protein)
chain: MPPITQQATVTAWLPQVDASQITGTISSLESFTNRFYTTTSGAQASDWIASEWQALSASLPNASVKQVSHSGYNQKSVVMTITGSEAPDEWIVIGGHLDSTIGSHTNEQSVAPGADDDASGIAAVTEVIRVLSENNFQPKRSIAFMAYAAEEVGLRGSQDLANQYKSEGKNVVSALQLDMTNYKGSAQDVVFITDYTDSNFTQYLTQLMDEYLPSLTYGFDTCGYACSDHASWHNAGYPAAMPFESKFNDYNPRIHTTQDTLANSDPTGSHAKKFTQLGLAYAIEMGSATGDTPTPGNQ
Kcat/Km [1]: 211000 M⁻¹ s⁻¹
Km [1]: 336 µM
kcat [1]: 70.3 s⁻¹
Kcat/Km [2]: 3760 M⁻¹ s⁻¹
Km [2]: 956 µM
kcat [2]: 3.23 s⁻¹

— US6428997
